From publication PMC3732869

Biological target: PTH receptors on UMR 106 cells (rat (endogenous in UMR 106)) (UniProt P25961)
Chain of UniProt P25961 (P25961 27-591): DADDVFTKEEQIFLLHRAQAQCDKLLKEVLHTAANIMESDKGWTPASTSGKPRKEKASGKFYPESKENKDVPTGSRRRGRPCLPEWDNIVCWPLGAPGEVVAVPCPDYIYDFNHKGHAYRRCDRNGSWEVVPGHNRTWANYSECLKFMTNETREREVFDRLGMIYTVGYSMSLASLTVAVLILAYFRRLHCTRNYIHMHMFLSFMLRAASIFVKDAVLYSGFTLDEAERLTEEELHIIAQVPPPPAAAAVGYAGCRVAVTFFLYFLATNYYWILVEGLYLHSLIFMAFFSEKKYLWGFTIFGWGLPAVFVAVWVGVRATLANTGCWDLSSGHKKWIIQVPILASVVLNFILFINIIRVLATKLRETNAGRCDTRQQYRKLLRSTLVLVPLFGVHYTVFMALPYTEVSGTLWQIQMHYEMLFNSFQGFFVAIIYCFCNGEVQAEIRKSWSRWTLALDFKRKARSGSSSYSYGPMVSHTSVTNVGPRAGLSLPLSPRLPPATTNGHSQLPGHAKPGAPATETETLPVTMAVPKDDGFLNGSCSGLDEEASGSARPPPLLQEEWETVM

potency in the cAMP bioassay on UMR 106 cells, against the standard: 99.7%
Substance: recombinant human parathyroid hormone (rhPTH 1-34) (peptide)
